Experimental data taken from PMC3905860, “DHX9 helicase is involved in preventing genomic instability induced by alternatively structured DNA in human cells”.

B1: duplex DNA control (dsDNA)
DNA 1: CTTGAGCTTGAGCTCAAGCTCAAG
DNA 2: CTTGAGCTTGAGCTCAAGCTCAAG

Molecular target: DHX9 helicase (human, UniProt Q08211 1-1270)
Experiment: EMSA; 5 mM AMP-PNP, 10 mM Mg2+; 100 nM DHX9, 100 nM DNA; EMSA: 20 mM Tris-HCl pH 7.5, 50 mM NaCl, 1 mM DTT, 1 mM EDTA, 10 mM MgCl2, 5% glycerol, 5 mM AMP-PNP, 30 C 30 min; MBN assay: 10 mM Tris-HCl pH 7.5, 5 mM DTT, 100 ug/ml BSA, 5 mM MgCl2, 5 mM ATP or AMP-PNP, 10% glycerol, 35 C
Settings: protein: recombinant, tags: His, label: 5'-32P

Sequence of DHX9 helicase (Q08211 whole entry): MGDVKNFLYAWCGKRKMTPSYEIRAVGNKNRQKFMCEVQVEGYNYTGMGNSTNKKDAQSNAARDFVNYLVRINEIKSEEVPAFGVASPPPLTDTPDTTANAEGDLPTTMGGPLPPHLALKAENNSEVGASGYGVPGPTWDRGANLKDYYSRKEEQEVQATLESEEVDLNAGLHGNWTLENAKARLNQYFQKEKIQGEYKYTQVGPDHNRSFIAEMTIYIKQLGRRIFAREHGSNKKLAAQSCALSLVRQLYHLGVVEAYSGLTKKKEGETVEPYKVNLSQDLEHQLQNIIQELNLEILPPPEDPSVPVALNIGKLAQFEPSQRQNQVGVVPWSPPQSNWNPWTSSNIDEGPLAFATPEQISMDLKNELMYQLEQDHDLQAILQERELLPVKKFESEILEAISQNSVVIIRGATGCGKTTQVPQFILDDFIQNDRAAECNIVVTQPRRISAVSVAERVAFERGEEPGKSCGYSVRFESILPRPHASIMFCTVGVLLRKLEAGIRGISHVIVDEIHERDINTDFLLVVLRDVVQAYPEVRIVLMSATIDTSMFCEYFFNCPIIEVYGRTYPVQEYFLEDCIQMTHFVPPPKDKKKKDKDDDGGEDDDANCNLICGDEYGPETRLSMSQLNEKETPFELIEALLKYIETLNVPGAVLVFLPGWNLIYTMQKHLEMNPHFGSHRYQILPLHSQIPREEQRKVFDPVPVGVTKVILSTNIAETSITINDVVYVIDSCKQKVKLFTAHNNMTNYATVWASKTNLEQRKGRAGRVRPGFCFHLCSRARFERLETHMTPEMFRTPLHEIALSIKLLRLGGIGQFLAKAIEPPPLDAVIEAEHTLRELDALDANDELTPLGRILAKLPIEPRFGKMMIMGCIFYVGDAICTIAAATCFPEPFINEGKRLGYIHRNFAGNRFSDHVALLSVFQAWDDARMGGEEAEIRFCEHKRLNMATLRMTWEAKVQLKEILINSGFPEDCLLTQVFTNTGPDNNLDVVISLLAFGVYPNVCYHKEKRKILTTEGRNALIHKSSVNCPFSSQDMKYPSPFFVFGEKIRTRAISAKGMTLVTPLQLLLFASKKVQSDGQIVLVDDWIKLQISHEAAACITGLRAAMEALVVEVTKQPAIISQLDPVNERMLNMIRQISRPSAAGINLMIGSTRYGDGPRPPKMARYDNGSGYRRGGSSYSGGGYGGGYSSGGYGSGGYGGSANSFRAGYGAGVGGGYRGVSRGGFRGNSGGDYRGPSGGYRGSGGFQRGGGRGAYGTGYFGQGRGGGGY

Binder	binding result (intramolecular triplex with 3' overhang, single strand, pre-annealed with 10 mM Mg2+)	binding result (self-complementary, 2 copies of one strand, blunt, hairpin may also form)
CCCCTCCCTTTTTGGGAGGGGCGCTTATGGGGAGGGCAGTCGAGCG (structured_DNA) [c-MYC-related intramolecular triplex with 3' overhang (H-DNA)]	binds	–
B1	–	no binding
